B1: PLK2 (parent)
chain: YAELGQCSVFPATDAPEQFISQVT

Variants of: B1
Assay: protein stability index of a GFP-peptide fusion (GPS, HEK-293T) (PSI 1-6); higher = more stable
Conditions: c terminus: a fixed tail appended
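Note: lentivirally expressed fusions sorted by FACS into six bins by GFP to DsRed ratio, PSI derived from sequencing read proportions per bin multiplied by bin number.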

Variant	protein stability index
YAETGQCSVFPATDAPEQFISQVT [L4T]	3.05
YAEAGQCSVFPATDAPEQFISQVT [L4A]	2.33
YAEFGQCSVFPATDAPEQFISQVT [L4F]	2.5
YAEWGQCSVFPATDAPEQFISQVT [L4W]	3.19
YAEGGQCSVFPATDAPEQFISQVT [L4G]	3.51
YAEVGQCSVFPATDAPEQFISQVT [L4V]	2.9
YAECGQCSVFPATDAPEQFISQVT [L4C]	2.43
YAEPGQCSVFPATDAPEQFISQVT [L4P]	3.04
YAERGQCSVFPATDAPEQFISQVT [L4R]	1.99
YAELFQCSVFPATDAPEQFISQVT [G5F]	2.5
YAELHQCSVFPATDAPEQFISQVT [G5H]	2.52
YAELAQCSVFPATDAPEQFISQVT [G5A]	2.14
YAELIQCSVFPATDAPEQFISQVT [G5I]	1.72
YAELVQCSVFPATDAPEQFISQVT [G5V]	2.21
YAELDQCSVFPATDAPEQFISQVT [G5D]	3.32
YAELEQCSVFPATDAPEQFISQVT [G5E]	3.81
YAELGQCSVFPATDAPEQTISQVT [F19T]	2.7
YAELGQCSVFPATDAPEQDISQVT [F19D]	2.87
YAELGQCSVFPATDAPEQSISQVT [F19S]	2.01
YAELGQCSVFPATDAPEQGISQVT [F19G]	2.38
YAELGQCSVFPATDAPEQIISQVT [F19I]	2.28
YAELGQCSVFPATDAPEQHISQVT [F19H]	3.16
YAELGQCSVFPATDAPEQCISQVT [F19C]	1.96
YAELGQCSVFPATDAIEQFISQVT [P16I]	1.74

Variant	protein stability index
YAELGQCSVFPATDANEQFISQVT [P16N]	2.35
YAELGQCSVFPATDALEQFISQVT [P16L]	1.84
YAELGQCSVFPATDATEQFISQVT [P16T]	2.05
YAELGQCSVFPATDAQEQFISQVT [P16Q]	2.44
YAELGQCSVFPATDAKEQFISQVT [P16K]	1.87
YAELGQCSVFPATDAWEQFISQVT [P16W]	2.84
YAELGQCSVFPNTDAPEQFISQVT [A12N]	2.33
YAELGQCSVFPMTDAPEQFISQVT [A12M]	1.72
YAELGQCSVFPCTDAPEQFISQVT [A12C]	1.87
YAELGQCSVFPETDAPEQFISQVT [A12E]	3.42
YAELGQCSVFPFTDAPEQFISQVT [A12F]	2.18
YAELGQCSVFPSTDAPEQFISQVT [A12S]	2.1
YAELGQCSVFPATDAPEQFLSQVT [I20L]	2.11
YAELGQCSVFPATDAPEQFMSQVT [I20M]	2.35
YAELGQCSVFPATDAPEQFVSQVT [I20V]	2.84
YAELGQCSVFPATDAPEQFDSQVT [I20D]	2.75
YAELGQCSVFPATDAPEQFRSQVT [I20R]	2.53
YAELGQCSVFPATDAPEQFASQVT [I20A]	2.13
YAELGQCSVFPATDAPEQFPSQVT [I20P]	2.24
YAELGQCSVFPATDNPEQFISQVT [A15N]	2.33
YAELGQCSVFPATDQPEQFISQVT [A15Q]	2.17
YAELGQCSVFPATDRPEQFISQVT [A15R]	2.21
YAELGQCSVFPATDHPEQFISQVT [A15H]	2.58
YAELGQCSVFPATDWPEQFISQVT [A15W]	2.29

Variant	protein stability index
YAELGQCSVFPATDDPEQFISQVT [A15D]	2.27
YAELGQCSVFPATDLPEQFISQVT [A15L]	2.31
YAELGQCSVFPATDMPEQFISQVT [A15M]	2.18
YAELGQCSVFPATDFPEQFISQVT [A15F]	1.98
YAELGQCSVFPATDKPEQFISQVT [A15K]	2.29
YAELGQCSVFPATDPPEQFISQVT [A15P]	2.47
YAELGQCSVFPATDTPEQFISQVT [A15T]	2.19
YAELGQCSVFYATDAPEQFISQVT [P11Y]	2.31
YAELGQCSVFLATDAPEQFISQVT [P11L]	2.03
YAELGQCSVFFATDAPEQFISQVT [P11F]	3.39
YAELGQCSVFEATDAPEQFISQVT [P11E]	1.33
YAELGQCSVFIATDAPEQFISQVT [P11I]	3.28
YAELGQCSVFVATDAPEQFISQVT [P11V]	2.33
YAELGQCSVFRATDAPEQFISQVT [P11R]	2.21
YAELGQCSVFGATDAPEQFISQVT [P11G]	3.1
YAELGQCSVFQATDAPEQFISQVT [P11Q]	1.91
YAELGQCSVFHATDAPEQFISQVT [P11H]	2.32
YAELGQCSVFPATDAPEQFISQVH [T24H]	2.57
YAELGQCSVFPATDAPEQFISQVF [T24F]	1.62
YAELGQCSVFPATDAPEQFISQVP [T24P]	2.08
YAELGQCSVFPATDAPEQFISQVL [T24L]	2.21
YAELGQCSVFPATDAPEQFISQVM [T24M]	1.73
YAELGQCSVFPATDAPEQFISQVE [T24E]	2.33
YAELGQCSVFPATDAPEQFISQVI [T24I]	2.48

Variant	protein stability index
YAELGQCSVFPATDAPEQFISQVC [T24C]	1.31
YAELGQCSVFPATDAPEQFISQVY [T24Y]	2
VAELGQCSVFPATDAPEQFISQVT [Y1V]	3.56
EAELGQCSVFPATDAPEQFISQVT [Y1E]	4.52
IAELGQCSVFPATDAPEQFISQVT [Y1I]	3.44
QAELGQCSVFPATDAPEQFISQVT [Y1Q]	4.7
NAELGQCSVFPATDAPEQFISQVT [Y1N]	4.46
YAELGQCSVFPATDAPKQFISQVT [E17K]	2.32
YAELGQCSVFPATDAPMQFISQVT [E17M]	1.6
YAELGQCSVFPATDAPFQFISQVT [E17F]	2.18
YAELGQCSVFPATDAPCQFISQVT [E17C]	1.79
YAELGQCSVFPATDAPTQFISQVT [E17T]	2.6
YAELGQCSVFPATDAPWQFISQVT [E17W]	3.35
YAELGQISVFPATDAPEQFISQVT [C7I]	1.97
YAELGQYSVFPATDAPEQFISQVT [C7Y]	2.12
YAELGQTSVFPATDAPEQFISQVT [C7T]	2.87
YAELGQMSVFPATDAPEQFISQVT [C7M]	2.23
YAELGQVSVFPATDAPEQFISQVT [C7V]	2.32
YAELGQQSVFPATDAPEQFISQVT [C7Q]	2.36
YAELGQESVFPATDAPEQFISQVT [C7E]	3.9
YAELGQNSVFPATDAPEQFISQVT [C7N]	1.89
YAELGQWSVFPATDAPEQFISQVT [C7W]	2.5

— the supplement of paper PMC10567573
